Reference: patent publication US7329737 (DYAX, dated 2008)

What follows are binders tested against T1, hK1 (human tissue kallikrein 1), recombinant (human, UniProt P06870 25-262) (assay: SPR).
T1 construct: Expressed in P. pastoris from KLK1 cDNA and purified; enzymatically active; also called KLK1; Recombinant (Pichia) Kallikrein

Binder | Kd [nM] | koff [s⁻¹] | kon [M⁻¹ s⁻¹]
M0118-E07 (Fab, V domains shown) VH: EVQLLESGGGLVQPGGSLRLSCAASGFTFSHYPMDWVRQAPGKGLEWVSRIYPSGGATKYADSVKGRFTISRDNSKNTLYLQMNSLRAEDTATYYCARGGGAFDIWGQGTMVTVSS VL: DIQMTQSPSSLSASVGDRVTITCRASQGISNYLAWYQQKPGKVPKLLIYAASTLQSGVPSRFSGSGSGTDFTLTISSLQPEDVATYYCQKYNSAPLTFGGGTKVEIKR | 31.8 | 0.0871 | 2.74e+06
M0102-C02 (Fab, V domains shown) VH: EVQLLESGGGLVQPGGSLRLSCAASGFTFSHYLMHWVRQAPGKGLEWVSSIYPSGGKTQYADSVKGRFTISRDNSKNTLYLQMNSLRAEDTAVYYCARVFGYYDFWSGYPGAFDYWGQGTLVTVSS VL: DIQMTQSPSSLSASVGDRVTITCRASQGISSSLAWYQQKPGKVPKLLIYAASTLQSGVPSRFSGSGSGTDFTLTISSLQPEDFATYYCQQSYSTPWTFGQGTKVEIKR | 43.5 | 0.00628 | 144000
M0102-C12 (Fab, V domains shown) VH: EVQLLESGGGLVQPGGSLRLSCAASGFTFSHYLMGWVRQAPGKGLEWVSVIWPSGGITKYADSVKGRFTISRDNSKNTLYLQMNSLRAEDTAVYYCARGNGGFDSWGQGTLVTVSS VL: DIQMTQSPSSLSASVGDRVTITCRASQGISNYLAWYQQKPGKVPKLLIYAASTLQSGVPSRFSGSGSGTDFTLTISSLQPEDVATYYCQKYNSAPWTFGQGTKVEIKR | 35.4 | 2.62 | 7.39e+07
M0093-E11 (Fab, V domains shown) VH: EVQLLESGGGLVQPGGSLRLSCAASGFTFSHYEMAWVRQAHGKGLEWVSVIYPSGGATRYADSVKGRFTISRDNSKNTLYLQMNSLRAEDTAVYYCARVAQYYGMDVWGQGTTVTVSS VL: DIQMTQSPATLSLSPGERATLSCRASQSVSSYLAWYQQKPGQAPRLLIYDASNRATGIPARFSGSGSGTDFTLTISSLEPEDFAVYYCQQRSNWLTFGGGTKVEIKR | 32.4 | 0.0436 | 1.34e+06
M0093-C08 (Fab, V domains shown) VH: EVQLLESGGGLVQPGGSLRLSCAASGFTFSRYPMGWVRQAPGKGLEWVSSIYPSGGSTYYADSVKGRFTISRDNSKNTLYLQMNSLRAEDTAVYYCARVGVWYGMDVWGQGTTVTVSS VL: DIQMTQSPGTLSLSPGERATLSCRASQSVSSSYLAWYQQKPGQAPRLLIFAASTRATGIPDRFSGSGSATDFTLTISSLEPEDFAVYYCQQRSNWPPELTFSGGTKVEIKR | 40.7 | 0.00578 | 142000
M0107-B05 (Fab, V domains shown) VH: EVQLLESGGGLVQPGGSLRLSCAASGFTFSHYLMMWVRQAPGKGLEWVSSIRSSGGITRYADSVKGRFTISRDNSKNTLYLQMNSLRAEDTAVYYCARVGYYYGMDVWGQGTTVTVSS VL: AQSELTQPASVSGSPGQSITISCTGTSSDVGAYNYVSWYQQHPGKVPKLMIYEVSNRPSGVSNRFSGSKSGNTASLTISGLQAEDEADYYCNSYTTSATLVFGGGTKLTVLS | 33.8 | 0.0203 | 600000
M0097-F08 (Fab, V domains shown) VH: EVQLLESGGGLVQPGGSLRLSCAASGFTFSNYPMVWVRQAPGKGLEWVSVIGPSGGKTKYADSVKGRFTISRDNSKNTLYLQMNSLRAEDTAVYYCARVGVWYGMDVWGQGTTVTVSS VL: DIQMTQSPSTLSASVGDRVTISCRASQGIGTHLNWYQQKLGNVPKLLIYAASGLQSGVPPRFSGSGSGTDFTLTISSLHPEDSATYFCQQSYSVPRTFGQGTKVEIKR | 33.1 | 0.0117 | 353000
M0112-D04 (Fab, V domains shown) VH: EVQLLESGGGLVQPGGSLRLSCAASGFTFSHYVMVWVRQAPGKGLEWVSGIRSSGGVTAYADSVKGRFTISRDNSKNTLYLQMNSLRAEDTAMYYCARVGVWYGMDVWGQGTTVTVSS VL: AQSALTQPLSVSVALGQTARITCGGNNIGSKNVHWYQQKPGQAPVLVIYRDSNRPSGIPERFSGSNSGNTATLTISGAQAGDEADYYCQVWDSSTVFGGGTKLTVLG | 54.2 | 0.00956 | 176000
M0136-B06 (Fab, V domains shown) VH: EVQLLESGGGLVQPGGSLRLSCAASGFTFSSYIMIWVRQAPGKGLEWVSYIRPSGGYTKYADSVKGRFTISRDNSKNTLYLQMNSLRAEDTAVYYCARVINAGPGRGYYWRGYSYSDAFDIWGQGTMVTVSS VL: not shown | 33 | 0.00661 | 200000
M0131-F12 (Fab, V domains shown) VH: EVQLLESGGGLVQPGGSLRLSCAASGFTFSRYAMGWVRQAPGKGLEWVSYIGPSGGNTTYADSVKGRFTISRDNSKNTLYLQMNSLRAEDTAVYYCARDVGGSGSYYMLSYYYYGMDVWGQGTMVTVSS VL: not shown | 37 | 0.00472 | 128000
M0124-C12 (Fab, V domains shown) VH: EVQLLESGGGLVQPGGSLRLSCAASGFTFSWYTMQWVRQAPGKGLEWVSRIYSSGGGTYYADSVKGRFTISRDNSKNTLYLQMNSLRAEDTAMYYCARVGPWGAFDIWGQGTMVTVSS VL: DIQMTQSPGTLSLSPGERATLSCRASQSVSSNYLAWYQQKPGKAPKLLIYAASSLQSGVPSRFSGSGSGTDFTLTISSLQPEDFATYYCQQRWTFGQGTKVEIKR | 32.5 | 0.126 | 3.89e+06
M0116-E08 (Fab, V domains shown) VH: EVQLLESGGGLVQPGGSLRLSCAASGFTFSRYPMIWVRQAPGKGLEWVSVIYPSGGMTKYADSVKGRFTISRDNSKNTLYLQMNSLRAEDTAVYYCARVGSYGSLGYWGQGTLVTVSS VL: DIQMTQSPSSLSASVGDRVTITCLASQSISSYLNWYQQKPGKAPKLLIYDASSLESGVPSRFSGSGSGTDFTLTISSLQPEDFAIYYCQQFNGYPPITFGQGTRLEIKR | 72.7 | 0.0164 | 225000
M0113-E03 (Fab, V domains shown) VH: EVQLLESGGGLVQPGGSLRLSCAASGFTFSRYTMFWVRQAPGKGLEWVSGIYPSGGKTIYADSVKGRFTISRDNSKNTLYLQMNSLRAEDTAVYYCATGGVFGVVDYWGQGTLVTVSS VL: DIQMTQSPSSLSASVGDRVTITCRASQSINSYLNWYQQKPGKAPNLLIYAASSLQNGVPSRFSGSGSGTDFTLTISSLQPEDFAAYYCQQSYSTPLTFGGGTKVEIKR | 31.5 | 500 | –
M0124-A01 (Fab, V domains shown) VH: EVQLLESGGGLVQPGGSLRLSCAASGFTFSNYPMYWVRQAPGKGLEWVSRIGPSGGHTDYADSVKGRFTISRDNSKNTLYLQMNSLRAEDTAVYYCARAGVWSGLDYWGQGTLVTVSS VL: DIQMTQSPSSLSASVGDRVTITCRASQSITGYLNWYQQKPGKAPKLLIYAASSLQSGVPSRFSGSGSGTDFTLSISSLQPEDFATYYCQQSYSTPYTFGQGTKLEIKR | 33.9 | 0.0114 | 336000
M0115-F08 (Fab, V domains shown) VH: EVQLLESGGGLVQPGGSLRLSCAASGFTFSHYVMVWVRQAPGKGLEWVSSIYPSGGMTVYADSVKGRFTISRDNSKNTLYLQMNSLRAEDTAVYYCARRGIANSFNIWGQGTMVTVSS VL: AQSELTQPASVSGSPGQSITISCTGTSSDVGGYNYVSWYQQHPGKAPKLMIYEVSNRPSGVSNRFSGSKSGNTASLTISGLQAEDEADYYCSSYTSSSTWVFGGGTKLTVLG | 32.6 | 0.0158 | 484000
M0103-E09 (Fab, V domains shown) VH: EVQLLESGGGLVQPGGSLRLSCAASGFTFSHYSMLWVRQAPGKGLEWVSSIRPSGGFTKYADSVKGRFTISRDNSKNTLYLQMNSLRAEDTAVYYCARRGVWDAFDIWGQGTMVTVSS VL: AQYELTQPASVSGSPGQSITISCTGTNTDVGGYNFVSWYQQYPGKAPKLIIFDVTNRPSGVSNRFSGSKSGNTASLTISGLQAEDEADYYCCSYTNTNTLVFAGGTKVTVLG | 36.4 | 0.00884 | 243000
M0108-E10 (Fab, V domains shown) VH: EVQLLESGGGLVQPGGSLRLSCAASGFTFSRYRMVWVRQAPGKGLEWVSSIYPSGGYTKYADSVKGRFTISRDNSKNTLYLQMNSLRAEDTAVYYCARVITYNNFDSWGQGTLVTVSS VL: DIQMTQSPGTLSLSPGERATLSCRASQTVSSTYLAWYQQKPGQAPRLLIYGASSRATGIPDRFSGGGSGTDFTLTISRLEPEDFAVYYCQQYGSSPPRYTFGQGTKLEIKR | 58.4 | 0.0134 | 230000
M0121-H07 (Fab, V domains shown) VH: EVQLLESGGGLVQPGGSLRLSCAASGFTFSKYYMVWVRQAPGKGLEWVSVIGPSGGWTTYADSVKGRFTISRDNSKNTLYLQMNSLRAEDTAVYYCARVDYSNYFDYWGQGTLVTVSS VL: DIQMTQSPSSLSASVGDRVTITCRASQSISRYLNWYQQKPGKAPKLLIYAASNLQSGVPSRFSGSGSGRDYTLTISSLQPEDFVTYYCQQSYSTPWTFGQGTKVEIKR | 32.8 | 0.0055 | 168000
M0113-G11 (Fab, V domains shown) VH: EVQLLESGGGLVQPGGSLRLSCAASGFTFSHYMMQWVRQAPGKGLEWVSGIGPSGGWTKYADSVKGRFTISRDNSKNTLYLQMNSLRAEDTALYYCARLNYGDYVWGQGTLVTVSS VL: not shown | 42.5 | 0.0121 | 286000
M0104-D12 (Fab, V domains shown) VH: EVQLLESGGGLVQPGGSLRLSCAASGFTFSHYAMFWVRQAPGKGLEWVSSIWPSGGKTMYADSVKGRFTISRDNSKNTLYLQMNSLRAEDTATYYCARGGSYLAFDIWGQGTMVTVSS VL: DIQMTQSPSSLSASVGDRVTITCRASLSVSGYLNWYQHKPGRAPNLLIYATSSLQSGVPSRFSGSGSGTDFTLTVSSLQPEDLATYYCQQSYSSPYTFGQGTKVEIKG | 61.3 | 0.0192 | 314000
M0115-F04 (Fab, V domains shown) VH: EVQLLESGGGLVQPGGSLRLSCAASGFTFSNYLMGWVRQAPGKGLEWVSSIGPSGGYTKYADSVKGRFTISRDNSKNTLYLQMNSLRAEDTAVYYCARGTGTTFFWGQGTLVTVSS VL: AQSALTQPPSVSVSPGQTVSITCSGDDLGGRHVSWFQQLSGQSPVLVIYQDDKRPSGIPERFSGSNSGNTATLTISGTQSVDEGDYYCLAWHNYKYVFGSGTTVTVLR | 41.6 | 0.0131 | 314000
